Reference: US20020068696A1 (published 2002)
Values belong to the binder of their own block, whether it stands above or below them.

Experiments:
HA-TRAF2 = target: T1, HA-TRAF2 (UniProt Q12933 1-501, limits assumed); assay: co-immunoprecipitation from 293T lysates, western blot
T1 construct: not shown: HA tag
T1 sequence (looked up): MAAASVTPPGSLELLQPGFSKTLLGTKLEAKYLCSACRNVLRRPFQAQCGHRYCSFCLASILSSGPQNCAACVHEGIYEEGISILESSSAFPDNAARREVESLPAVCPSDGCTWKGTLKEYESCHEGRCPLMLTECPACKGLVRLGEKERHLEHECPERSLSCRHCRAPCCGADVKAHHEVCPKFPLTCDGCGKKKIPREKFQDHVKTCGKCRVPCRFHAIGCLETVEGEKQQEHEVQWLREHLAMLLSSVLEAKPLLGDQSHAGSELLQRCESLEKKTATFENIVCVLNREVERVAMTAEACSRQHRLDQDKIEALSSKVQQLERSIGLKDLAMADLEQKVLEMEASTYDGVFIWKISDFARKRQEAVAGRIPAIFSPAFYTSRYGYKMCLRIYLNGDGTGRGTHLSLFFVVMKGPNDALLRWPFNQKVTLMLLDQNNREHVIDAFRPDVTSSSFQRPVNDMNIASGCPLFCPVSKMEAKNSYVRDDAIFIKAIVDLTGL

HA-TRAF3 = target: T2, HA-TRAF3 (UniProt Q13114 1-568, limits assumed); assay: as above
T2 construct: not shown: HA tag
T2 sequence (looked up): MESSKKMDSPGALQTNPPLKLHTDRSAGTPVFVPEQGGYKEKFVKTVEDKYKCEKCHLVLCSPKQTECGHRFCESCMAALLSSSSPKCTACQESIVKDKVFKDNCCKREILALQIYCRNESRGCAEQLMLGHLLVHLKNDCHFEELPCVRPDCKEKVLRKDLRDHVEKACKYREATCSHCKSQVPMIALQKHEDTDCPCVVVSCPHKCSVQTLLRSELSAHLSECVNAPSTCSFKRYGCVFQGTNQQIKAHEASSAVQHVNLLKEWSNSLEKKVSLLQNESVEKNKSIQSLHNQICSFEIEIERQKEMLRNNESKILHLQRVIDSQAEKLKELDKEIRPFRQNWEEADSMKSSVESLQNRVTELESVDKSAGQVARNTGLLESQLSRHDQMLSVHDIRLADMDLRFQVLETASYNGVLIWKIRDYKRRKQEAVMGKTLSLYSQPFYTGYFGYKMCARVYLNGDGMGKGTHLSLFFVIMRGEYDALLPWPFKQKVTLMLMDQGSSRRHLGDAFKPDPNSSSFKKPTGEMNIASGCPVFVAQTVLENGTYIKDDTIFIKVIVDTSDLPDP

binding result (HA-TRAF2): no binding
B1: Flag-tagged TRADEβ (receptor)
chain: KVTCETGDCRQQEFRDRSGNCVPCNQCGPGMELSKECGFGYGEDAQCVTCRLHRFKEDWGFQKCKPCLDCAVVNRFQKANCSATSDAICGDCLPGFYRKTKLVGFQDMECVPCGDPPPPYEPHCASKVNLVKIASTASSPRDTALAAVICSALATVLLALLILCVIYCKRQFMEKKPSWSLRSQDIQYNGSELSCLDRPQLHEYAHRACCQCRRDSVQTCGPVRLLPSMCCEEACSPNPATLGCGVHSAASLQARNAGPAGEMVPTFFGSLTQSICGEFSDAWPLMQNPMGGDNISFCDSYPELAGEDIHSLNPELESSTSLDSNSSQDLVGGAVPVQSHSENFTAATDLSRYNNTLVESASTQDALTMRSQLDQESGAIIHPATQTSLQVRQRLGSL
notes: Full-length isoform expressed in 293T cells and tested in cell lysates by co-immunoprecipitation; Position of the Flag tag unknown; Putative 25-residue signal left out; also called Flag tagged TRADE construct; not shown: Flag tag

binding result (HA-TRAF3): no binding
B2: deletion construct TRADE 1-218 (Flag-tagged) (receptor)
chain: KVTCESGDCRQQEFRDRSGNCVPCNQCGPGMELSKECGFGYGEDAQCVTCRLHRFKEDWGFQKCKPCLDCAVVNRFQKANCSATSDAICGDCLPGFYRKTKLVGFQDMECVPCGDPPPPYEPHCASKVNLVKIASTASSPRDTALAAVICSALATVLLALLILCVIYCKRQFMEKKPSWSLRSQDIQYNGSEL
notes: Putative 25-residue signal left out; not shown: Flag tag

binding result (HA-TRAF2): no binding
B3: Flag-tagged TRADEα (receptor)
chain: KVTCESGDCRQQEFRDRSGNCVPCNQCGPGMELSKECGFGYGEDAQCVTCRLHRFKEDWGFQKCKPCLDCAVVNRFQKANCSATSDAICGDCLPGFYRKTKLVGFQDMECVPCGDPPPPYEPHCASKVNLVKIASTASSPRDTALAAVICSALATVLLALLILCVIYCKRQFMEKKPSWSLRSQDIQYNGSELSCFDRPQLHEYAHRACCQCRRDSVQTCGPVRLLPSMCCEEACSPNPATLGCGVHSAASLQARNAGPAGEMVPTFFGSLTQSICGEFSDAWPLMQNPMGGDNISFCDSYPELTGEDIHSLNPELESSTSLDSNSSQDLVGGAVPVQSHSENFTAATDLSRYNNTLVESASTQDALTMRSQLDQESGAIIHPATQTSLQEA
notes: Full-length isoform expressed in 293T cells and tested in cell lysates by co-immunoprecipitation; Position of the Flag tag unknown (written last here only for want of information); Putative 25-residue signal left out; also called Flag tagged TRADE construct; not shown: Flag tag
